Experimental data as given in patent publication US20220406376A1 (MacroGenics, published 2022).

B1: HER2 MAB-1 (antibody, V domains shown)
VH: EVQLQESGPELKKPGETVKISCKASGYTFTNYGMNWVKQAPGKGLKWMGWINTNIGEPTYTEEFKGRFAFSLGTSASTAFLQINNLKNEDTATYFCARDDGYGNRVSYWGQGTLVTVSA
VL: DILMTQSPLSMYTSLGERVTITCKASQDINSYLSWFQQKPGKSPKTLIYRANRLVDGVPSRFSGSGSGQDYSLTISSLEYEDMGIYYCLQHDEFPWTFGGGTKLEIK
notes: also called 8H11
B2: DART-C (bispecific antibody)
chain 1: not shown
chain 2: DIQMTQSPSSLSASVGDRVTITCKASQDISNYLSWFQQKPGKAPKTLIYRANRLQSGVPSRFSGSGSGTDFTLTISSLQPEDFATYYCLQHDEFPWTFGQGTKLEIKGGGSGGGGQVQLVQSGAEVKKPGASVKVSCKASGYTFTSYWINWVKQAPGQGLEWIGNIYPSDSYTNYNQKFKDKATITADKSTSTAYMELSSLRSEDTAVYYCTRDYGSSYSFDYWGQGTTVTVSSGGCGGGKVAACKEKVAALKEKVAALKEKVAALKE
B3: TRIDENT-2 (other)
chain 1: DIQMTQSPSTLSASVGDRVTITCRASQSVGYMHWYQQKPGKAPKLLIYDTSKLASGVPSRFSGSGSGTEFTLTISSLQPDDFATYYCFQGSGYPFTFGGGTKLEIKGGGSGGGGEVKLDETGGGLVQPGRPMKLSCVASGFTFSDYWMNWVRQSPEKGLEWVAQIRNKPYNYETYYSDSVKGRFTISRDDSKSSVYLQMNNLRVEDMGIYYCTGSYYGMDYWGQGTSVTVSSASTKGEVAACEKEVAALEKEVAALEKEVAALEKGGGDKTHTCPPCPAPEAAGGPSVFLFPPKPKDTLMISRTPEVTCVVVDVSHEDPEVKFNWYVDGVEVHNAKTKPREEQYNSTYRVVSVLTVLHQDWLNGKEYKCKVSNKALPAPIEKTISKAKGQPREPQVYTLPPSREEMTKNQVSLWCLVKGFYPSDIAVEWESNGQPENNYKTTPPVLDSDGSFFLYSKLTVDKSRWQQGNVFSCSVMHEALHNHYTQKSLSLSPGK
chain 2: DVVMTQTPFSLPVSLGDQASISCRSSQSLVHSNGNTYLRWYLQKPGQSPKVLIYKVSNRFSGVPDRFSGSGSGTDFTLKISRVEAEDLGVYFCSQSTHVPWTFGGGTKLEIKGGGSGGGGQVTLRESGPALVKPTQTLTLTCTFSGFSLSTSGMSVGWIRQPPGKALEWLADIWWDDKKDYNPSLKSRLTISKDTSKNQVVLKVTNMDPADTATYYCARSMITNWYFDVWGAGTTVTVSSASTKGKVAACKEKVAALKEKVAALKEKVAALKE
heavy: QVQLVQSGAEVKKPGASVKVSCKASGYTFTNYGMNWVRQAPGQGLEWMGWINTNIGEPTYTEEFKGRVTMTRDTSISTAYMELSRLRSDDTAVYYCARDDGYGNRVSYWGQGTLVTVSSASTKGPSVFPLAPSSKSTSGGTAALGCLVKDYFPEPVTVSWNSGALTSGVHTFPAVLQSSGLYSLSSVVTVPSSSLGTQTYICNVNHKPSNTKVDKRVEPKSCDKTHTCPPCPAPEAAGGPSVFLFPPKPKDTLMISRTPEVTCVVVDVSHEDPEVKFNWYVDGVEVHNAKTKPREEQYNSTYRVVSVLTVLHQDWLNGKEYKCKVSNKALPAPIEKTISKAKGQPREPQVYTLPPSREEMTKNQVSLSCAVKGFYPSDIAVEWESNGQPENNYKTTPPVLDSDGSFFLVSKLTVDKSRWQQGNVFSCSVMHEALHNRYTQKSLSLSPGK
light: DIQMTQSPSSLSASVGDRVTITCKASQDISNYLSWFQQKPGKAPKTLIYRANRLQSGVPSRFSGSGSGTDFTLTISSLQPEDFATYYCLQHDEFPWTFGQGTKLEIKRTVAAPSVFIFPPSDEQLKSGTASVVCLLNNFYPREAKVQWKVDNALQSGNSQESVTEQDSKDSTYSLSSTLTLSKADYEKHKVYACEVTHQGLSSPVTKSFNRGEC
notes: also called RSV×FITC×HER2 control molecule; TA×FITC×RSV control molecule
B4: DART-E (bispecific antibody, human IgG1, kappa, L234A L235A)
heavy: QVQLQQPGAELVRPGASVKLSCKASGYTFTSYWINWVKQRPGQGLEWIGNIYPSDSYTNYNQKFKDKATLTVDKSSSTAYMQLSSPTSEDSAVYYCTRDYGSSYSFDYWGQGTTLTVSSASTKGPSVFPLAPSSKSTSGGTAALGCLVKDYFPEPVTVSWNSGALTSGVHTFPAVLQSSGLYSLSSVVTVPSSSLGTQTYICNVNHKPSNTKVDKRVEPKSCDKTHTCPPCPAPEAAGGPSVFLFPPKPKDTLMISRTPEVTCVVVDVSHEDPEVKFNWYVDGVEVHNAKTKPREEQYNSTYRVVSVLTVLHQDWLNGKEYKCKVSNKALPAPIEKTISKAKGQPREPQVYTLPPSREEMTKNQVSLSCAVKGFYPSDIAVEWESNGQPENNYKTTPPVLDSDGSFFLVSKLTVDKSRWQQGNVFSCSVMHEALHNRYTQKSLSLSPGK
light: DIQMTQTTSSLSASLGDRVTISCRPSQDISNYLNWYQQKPDGTVKLLIYYTSRLRSGVPSRFSGSGSGTDYSLTISNLEQEDIATYFCQQGDTLPYTFGGGTKLEIKRTVAAPSVFIFPPSDEQLKSGTASVVCLLNNFYPREAKVQWKVDNALQSGNSQESVTEQDSKDSTYSLSSTLTLSKADYEKHKVYACEVTHQGLSSPVTKSFNRGEC
chain 1: QVQLQQPGAELVRPGASVKLSCKASGYTFTSYWINWVKQRPGQGLEWIGNIYPSDSYTNYNQKFKDKATLTVDKSSSTAYMQLSSPTSEDSAVYYCTRDYGSSYSFDYWGQGTTLTVSSASTKGPSVFPLAPSSKSTSGGTAALGCLVKDYFPEPVTVSWNSGALTSGVHTFPAVLQSSGLYSLSSVVTVPSSSLGTQTYICNVNHKPSNTKVDKRVEPKSCDKTHTCPPCPAPEAAGGPSVFLFPPKPKDTLMISRTPEVTCVVVDVSHEDPEVKFNWYVDGVEVHNAKTKPREEQYNSTYRVVSVLTVLHQDWLNGKEYKCKVSNKALPAPIEKTISKAKGQPREPQVYTLPPSREEMTKNQVSLWCLVKGFYPSDIAVEWESNGQPENNYKTTPPVLDSDGSFFLYSKLTVDKSRWQQGNVFSCSVMHEALHNHYTQKSLSLSPGGGGSGGGSGGGDIQMTQSPSSLSASVGDRVTITCKASQDISNYLSWFQQKPGKAPKTLIYRANRLQSGVPSRFSGSGSGTDFTLTISSLQPEDFATYYCLQHDEFPWTFGQGTKLEIKGGGSGGGGQVQLVQSGAEVKKPGASVKVSCKASGYTFTNYGMNWVRQAPGQGLEWMGWINTNIGEPTYTEEFKGRVTMTRDTSISTAYMELSRLRSDDTAVYYCARDDGYGNRVSYWGQGTLVTVSSGGCGGGEVAALEKEVAALEKEVAALEKEVAALEK
chain 2: DIQMTQSPSSLSASVGDRVTITCKASQDISNYLSWFQQKPGKAPKTLIYRANRLQSGVPSRFSGSGSGTDFTLTISSLQPEDFATYYCLQHDEFPWTFGQGTKLEIKGGGSGGGGQVQLVQSGAEVKKPGASVKVSCKASGYTFTNYGMNWVRQAPGQGLEWMGWINTNIGEPTYTEEFKGRVTMTRDTSISTAYMELSRLRSDDTAVYYCARDDGYGNRVSYWGQGTLVTVSSGGCGGGKVAALKEKVAALKEKVAALKEKVAALKE
B5: hHER2 MAB-1 (1.2) (antibody, V domains shown)
VH: QVQLVQSGAEVKKPGASVKVSCKASGYTFTNYGMNWVRQAPGQGLEWMGWINTNIGEPTYTEEFKGRVTMTRDTSISTAYMELSRLRSDDTAVYYCARDDGYGNRVSYWGQGTLVTVSS
VL: DIQMTQSPSSLSASVGDRVTITCKASQDINTYLSWFQQKPGKAPKTLIYRANRLVEGVPSRFSGSGSGTDFTLTISSLQPEDFATYYCLQHDEFPWTFGQGTKLEIK
B6: hHER2 MAB-1 (1.3) (antibody, V domains shown)
VH: QVQLVQSGAEVKKPGASVKVSCKASGYTFTNYGMNWVRQAPGQGLEWMGWINTNIGEPTYTEEFKGRVTMTRDTSISTAYMELSRLRSDDTAVYYCARDDGYGNRVSYWGQGTLVTVSS
VL: DIQMTQSPSSLSASVGDRVTITCKASQDISNYLSWFQQKPGKAPKTLIYRANRLQSGVPSRFSGSGSGTDFTLTISSLQPEDFATYYCLQHDEFPWTFGQGTKLEIK

Experiments:
[1] = target: T1, extracellular portion of human HER2 fused to a histidine-containing peptide (human, UniProt P04626 23-652); experiment: SPR (BIACORE); antibody captured on anti-human Fc; huHER2 6.25-50 nM; 1:1 Langmuir
T1 construct: extracellular domain; also called huHER2; Human HER2/neu
Source text: The humanized variants were selected to have improved binding affinity as compared to the parental murine antibody and as described may be further engineered to eliminate sequence liabilities (e.g., isomerization, deamidation sites) as described above. The binding affinity of several combinations of humanized VH and VL domains was examined by BIACORE®. Thus, an extracellular portion of human HER2 fused to a histidine-containing peptide (“huHER2”) was passed over a surface coated with immobilized antibody. Briefly, each test molecule was captured onto an F(ab)₂ goat-anti-human Fc-coated surface and then incubated in the presence of different concentrations (6.25 nM-50 nM) of huHER2. The kinetics of binding were determined via BIACORE® analysis binding (normalized 1:1 Langmuir binding model).

[2] = target: T2, HER2/neu on the surface of target cells (N87, JIMT-1, MCF-7, MDA-MB231) (UniProt P04626 23-1255, limits assumed); experiment: flow cytometry on N87 gastric cancer cells, anti-hFc APC MFI
T2 construct: whole, on cells

[3] = target: T3, CD137 on the surface of cells (activated human T cells; engineered CHO cells) (human, UniProt Q07011 24-255); experiment: flow cytometry on activated pan T cells gated CD8, anti-hFc APC MFI
T3 construct: whole, on cells; also called human CD137; cell surface expressed CD137
T3 sequence (Q07011 24-255, change not shown): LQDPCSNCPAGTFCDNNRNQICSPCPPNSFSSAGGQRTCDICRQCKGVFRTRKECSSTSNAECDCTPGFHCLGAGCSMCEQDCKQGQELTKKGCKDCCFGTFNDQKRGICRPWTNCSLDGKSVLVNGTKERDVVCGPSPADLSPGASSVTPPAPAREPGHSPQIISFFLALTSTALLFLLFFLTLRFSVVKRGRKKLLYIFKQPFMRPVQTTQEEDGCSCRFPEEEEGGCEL

[4] = target: T2, HER2/neu on the surface of target cells …; experiment: flow cytometry on N87 cells, anti-hFc APC MFI
[5] = target: T2, HER2/neu on the surface of target cells …; experiment: flow cytometry on MCF-7 cells, anti-hFc APC MFI
[6] = target: T2, HER2/neu on the surface of target cells …; experiment: flow cytometry on JIMT-1 cells, anti-hFc APC MFI

| Binder | Kd [1] [nM] | koff [1] [s⁻¹] | kon [1] [M⁻¹ s⁻¹] | EC50 (read off the curve) [3] [nM] | further results |
| --- | --- | --- | --- | --- | --- |
| B1 | 1.27 | 0.000654 | 510000 | – | – |
| B2 | – | – | – | ~0.1 | EC50 (read off the curve) [2]: ~0.5 nM |
| B3 | – | – | – | – | EC50 (read off the curve) [4]: ~1 nM; EC50 (read off the curve) [5]: ~0.2 nM; EC50 (read off the curve) [6]: ~0.7 nM |
| B4 | – | – | – | ~0.1 | binding result [2]: binds |
| B5 | 0.45 | 0.00028 | 620000 | – | – |
| B6 | 0.36 | 0.000223 | 618000 | – | – |
